Broadly, the IC50 is the midpoint of a concentration-inhibition curve. The low end stands for higher potency, the high end for lower potency.

Drawing on patent publication US20030092609A1, this text covers IC50 and Inhibition of forskoline stimulated cAMP formation in CHO cells, EC50 for five molecules.

[ ]: non-standard residue; d: D form. Hyp = O=C(O)[C@@H]1C[C@@H](O)CN1

Test [1] concerns the target AAP receptors in CHO cells. Description: in situ displacement of [125I]AAP10 on intact CHO cells. On the technique in general: In a radioligand displacement assay an active substance lowers the binding of a labelled ligand.
Test [2] deals with AAP receptors in CHO cells. The test can be described thus: cell-based or functional assay.
In test [3] the target is [125I]AAP10 binding site in murine heart tissue preparations. The test can be described thus: displacement of 0.8 nM [125I]AAP10 from murine heart membranes.
Test [4] has the same target. The test can be described thus: displacement of 0.8 nM [125I]AAP10 from murine heart filtrate.

In the case of “Ac-D-Tyr-D-Pro-D-4Hyp-Gly-D-Ala-Gly-NH2 (Compound 2) (peptide)”, the IC50 in test [1] worked out at 0.5 nM; in test [3] it was 1.2 nM; in test [4], 3.6 nM. In addition, the Inhibition of forskoline stimulated cAMP formation in CHO cells, EC50 in test [2] was found to be 6.2 nM.

For “Ac-D-Tyr(3,5-di-I)-D-Pro-D-Hyp-Gly-D-Ala-Gly-NH2 (Compound 24) (peptide)”, the IC50 in test [1] came to 65 nM.

On to {ASAL(3-I)}-P[Hyp]GAG-NH2 [ASAL(mono-iodo)-Pro-Hyp-Gly-Ala-Gly-NH2 (Compound 32)], for which the IC50 in test [1] was determined as 0.5 nM.

B1: H-Gly-Pro-Hyp-Gly-Ala-Gly-OH (AAP, antiarrhythmic peptide) (peptide)
chain: H-GP[Hyp]GAG-OH
SMILES: C[C@H](NC(=O)CNC(=O)[C@@H]1C[C@@H](O)CN1C(=O)[C@@H]1CCCN1C(=O)CN)C(=O)NCC(=O)O
With B1, the half-inhibitory concentration (IC50) was found to be 0.8 nM in test [1] and 1.2 nM in test [4]. Moreover, in test [2], the Inhibition of forskoline stimulated cAMP formation in CHO cells, EC50 was determined as 53 nM.

As for H-GAG[Hyp]PY-NH2 [H-Gly-Ala-Gly-Hyp-Pro-Tyr-NH2 (AAP10)], the IC50 in test [1] is 130 nM; in test [4], 1.2 nM. The same molecule came in with an Inhibition of forskoline stimulated cAMP formation in CHO cells, EC50 in test [2] of 11 nM.
